From US20260250398A1

Target: FZD1/2/4/5/7/8
Test: cell-based or functional assay

Row | TOPFLASH Maximal Signal (% Wnt3a maxima) (% Wnt3a maxima) | TOPFLASH % Wnt Maxima [% Wnt Maxima] | TOPFLASH EC50 [nM] | Binder
1 | 22 | – | – | CH3 (Dia-CH3-Dia; paratopes 5019; 2539) (bispecific antibody) MNLLLILTFVAAAVAEFEVQLVESGGGLVQPGGSLRLSCAASGFNIGSSSIHWVRQAPGKGLEWVASIYSAFASTSYADSVKGRFTISADTSKNTAYLQMNSLRAEDTAVYYCARYHFPFGFALDYWGQGTLVTVSSGGGGSDIQMTQSPSSLSASVGDRVTITCRASQSVSSAVAWYQQKPGKAPKLLIYSASSLYSGVPSRFSGSRSGTDFTLTISSLQPEDFATYYCQQGVYLFTFGQGTKVEIKDKTHTKVEPKTSDKTHTCPPCPGQPREPQVYTLPPSREEMTKNQVSLTCLVKGFYPSDIAVEWESNGQPENNYKTTPPVLDSDGSFFLYSKLTVDKSRWQQGNVFSCSVMHEALHNHYTQKSLSLSPGKGTTAASGSSGGSSSGAGRTEVQLVESGGGLVQPGGSLRLSCAASGFNISYSSIHWVRQAPGKGLEWVAYISSYYGYTYYADSVKGRFTISADTSKNTAYLQMNSLRAEDTAVYYCARAHYFPWAGAMDYWGQGTLVTVSSGGGGSDIQMTQSPSSLSASVGDRVTITCRASQSVSSAVAWYQQKPGKAPKLLIYSASSLYSGVPSRFSGSRSGTDFTLTISSLQPEDFATYYCQQYSWGPFTFGQGTKVEIK
2 | – | 42 | 0.4 | CT0003 (Table 5: FZD Diabody-Fc-LRP scFv; paratopes 5016; 2539, 2542) (bispecific antibody) chain 1: MNLLLILTFVAAAVAEFEVQLVESGGGLVQPGGSLRLSCAASGFNISSYYIHWVRQAPGKGLEWVASIYSSYGYTSYADSVKGRFTISADTSKNTAYLQMNSLRAEDTAVYYCARTVRGSKKPYFSGWAMDYWGQGTLVTVSSGGGGSDIQMTQSPSSLSASVGDRVTITCRASQSVSSAVAWYQQKPGKAPKLLIYSASSLYSGVPSRFSGSRSGTDFTLTISSLQPEDFATYYCQQYSWGPFTFGQGTKVEIKLEDKTHTKVEPKSSDKTHNCPPCPAPELLGGPSVFLFPPKPKDTLMISRTPEVTCVVVDVSHEDPEVKFNWYVDGVEVHNAKTKPREEQYNSTYRVVSVLTVLHQDWLNGKEYKCKVSNKALPAPIEKTISKAKGQPREPQVYTLPPIRELMTSNQVSLSCAVKGFYPSDIAVEWESNGQPENNYKTTPPVLDSDGSFFLVSKLTVDKSRWQQGNVFSCSVMHEALHNHYTQKSLSLSPGKSGSETPGTSESATPESGGGEVQLVESGGGLVQPGGSLRLSCAASGFNIHSSSIHWVRQAPGKGLEWVAATYSSFGSITYADSVKGRFTISADTSKNTAYLQMNSLRAEDTAVYYCARYHHPFGYALDYWGQGTLVTVSSGTTAASGSSGGSSSGADIQMTQSPSSLSASVGDRVTITCRASQSVSSAVAWYQQKPGKAPKLLIYSASSLYSGVPSRFSGSRSGTDFTLTISSLQPEDFATYYCQQGVYLFTFGQGTKVEIK chain 2: MNLLLILTFVAAAVAEFEVQLVESGGGLVQPGGSLRLSCAASGFNISYSSIHWVRQAPGKGLEWVAYISSYYGYTYYADSVKGRFTISADTSKNTAYLQMNSLRAEDTAVYYCARAHYFPWAGAMDYWGQGTLVTVSSGGGGDIQMTQSPSSLSASVGDRVTITCRASQSVSSAVAWYQQKPGKAPKLLIYSASSLYSGVPSRFSGSRSGTDFTLTISSLQPEDFATYYCQQYYWPITFGQGTKVEIKLEDKTHTKVEPKTSDKTHTCPPCPAPELLGGPSVFLFPPKPKDTLMISRTPEVTCVVVDVSHEDPEVKFNWYVDGVEVHNAKTKPREEQYNSTYRVVSVLTVLHQDWLNGKEYKCKVSNKALPAPIEKTISKAKGQPREPMVFDLPPSREEMTKNQVSLWCMVKGFYPSDIAVEWESNGQPENNYKTTPPVLDSDGSFFLYSKLTVDKSRWQQGNVFSCSVMHEALHNHYTQKSLSLSPGKSGSETPGTSESATPESGGGEVQLVESGGGLVQPGGSLRLSCAASGFNIHSSSIHWVRQAPGKGLEWVAATYSSFGSITYADSVKGRFTISADTSKNTAYLQMNSLRAEDTAVYYCARYHHPFGYALDYWGQGTLVTVSSGTTAASGSSGGSSSGADIQMTQSPSSLSASVGDRVTITCRASQSVSSAVAWYQQKPGKAPKLLIYSASSLYSGVPSRFSGSRSGTDFTLTISSLQPEDFATYYCQQGVYLFTFGQGTKVEIK
3 | 42 | – | 0.4 | Fab-Dia (paratopes 5016; 2540/2542) (bispecific antibody) heavy: EVQLVESGGGLVQPGGSLRLSCAASGFNIHSSSIHWVRQAPGKGLEWVAATYSSFGSITYADSVKGRFTISADTSKNTAYLQMNSLRAEDTAVYYCARYHHPFGYALDYWGQGTLVTVSSASTKGPSVFPLAPSSKSTSGGTAALGCLVKDYFPEPVTVSWNSGALTSGVHTFPAVLQSSGLYSLSSVVTVPSSSLGTQTYICNVNHKPSNTKVDKKVEPKSCDKTHTGGSGGEVQLVESGGGLVQPGGSLRLSCAASGFTISYSSIHWVRQAPGKGLEWVASISPYYGYTYYADSVKGRFTISADTSKNTAYLQMNSLRAEDTAVYYCARSSYFPWFSAMDYWGQGTLVTVSSGGGGSDIQMTQSPSSLSASVGDRVTITCRASQSVSSAVAWYQQKPGKAPKLLIYSASSLYSGVPSRFSGSRSGTDFTLTISSLQPEDFATYYCQQYYWPITFGQGTKVEIK light: DIQMTQSPSSLSASVGDRVTITCRASQSVSSAVAWYQQKPGKAPKLLIYSASSLYSGVPSRFSGSRSGTDFTLTISSLQPEDFATYYCQQGVYLFTFGQGTKVEIKRTVAAPSVFIFPPSDEQLKSGTASVVCLLNNFYPREAKVQWKVDNALQSGNSQESVTEQDSKDSTYSLSSTLTLSKADYEKHKVYACEVTHQGLSSPVTKSFNRGECGGGGSEVQLVESGGGLVQPGGSLRLSCAASGFTISSYYIHWVRQAPGKGLEWVASIYSSYGYTSYADSVKGRFTISADTSKNTAYLQMNSLRAEDTAVYYCARTVRGSKKPYFSGWAMDYWGQGTLVTVSSGGGGSDIQMTQSPSSLSASVGDRVTITCRASQSVSSAVAWYQQKPGKAPKLLIYSASSLYSGVPSRFSGSRSGTDFTLTISSLQPEDFATYYCQQYYFLITFGQGTKVEIK
